Substrate in this data set: CCCCC/C=C\C/C=C\C/C=C\C/C=C\CCCC(=O)O
Put plainly: mass spectrometric product formation assay. Particulars: 50 nM enzyme. The data set is classed as biochemical, Mus musculus.

Positions count from the first letter of the chain named. Names may count otherwise.

Data on two proteins can be found in PMC4721528.

B1: mCOX-2 (mouse COX-2) (Mus musculus; L489M) (protein)
chain: ANPCCSNPCQNRGECMSTGFDQYKCDCTRTGFYGENCTTPEFLTRIKLLLKPTPNTVHYILTHFKGVWNIVNNIPFLRSLIMKYVLTSRSYLIDSPPTYNVHYGYKSWEAFSNLSYYTRALPPVADDCPTPMGVKGNKELPDSKEVLEKVLLRREFIPDPQGSNMMFAFFAQHFTHQFFKTDHKRGPGFTRGLGHGVDLNHIYGETLDRQHKLRLFKDGKLKYQVIGGEVYPPTVKDTQVEMIYPPHIPENLQFAVGQEVFGLVPGLMMYATIWLREHNRVCDILKQEHPEWGDEQLFQTSRLILIGETIKIVIEDYVQHLSGYHFKLKFDPELLFNQQFQYQNRIASEFNTLYHWHPLLPDTFNIEDQEYSFKQFLYNNSILLEHGLTQFVESFTRQIAGRVAGGRNVPIAVQAVAKASIDQSREMKYQSLNEYRKRFSLKPYTSFEELTGEKEMAAELKALYSDIDVMEMYPALLVEKPRPDAIFGETMVELGAPFSLKGLMGNPICSPQYWKPSTFGGEVGFKIINTASIQSLICNNVKGCPFTSFNVQDPQPTKTATINASASHSRLDDINPTVLIKRRSTEL
A word on the Km: it is the substrate concentration at which the rate is half of its maximum. Consider B1, for which the Km was found to be 1.4 ± 0.3 µM and the kcat was determined as 3.3 ± 0.1 s^–1.

B2: mCOX-2 (mouse COX-2) (Mus musculus) (protein)
chain: B1 chain with M472L
Turning to B2, the Michaelis constant (Km) was found to be 2.3 ± 0.3 µM and the kcat is given as 3.1 ± 0.1 s^–1.
